Reference: publication PMC6561178, “Caulobacter crescentus Hfq structure reveals a conserved mechanism of RNA annealing regulation”
Each block holds one molecule with its values, some of them ahead of it.

Legend:
[1] = target: Caulobacter crescentus Hfq (Caulobacter crescentus); experiment: crystal structure; hanging-drop vapor diffusion; Cc Hfq at 7 mg/mL; 0.2 M sodium thiocyanate, 17% PEG 3350; 2.15 Å; four hexamers in the asymmetric unit, space group P4_(3)
[2] = target: T1, Ec Hfq (Hfq102) (Escherichia coli, UniProt P0A6X3 1-102); experiment: EMSA; Hill n 4.4; EMSA: 34 mM Tris-HCl pH 7.5, 50 mM NaCl, 50 mM KCl, 50 mM NH4Cl, 11.4 mM EDTA, 12% glycerol, 30 C, 30 min, ~1 nM 32P-RNA, Kd in Hfq6; anisotropy: 10 mM Tris-HCl; conditions: protein: recombinant; tags: untagged; chain copies: 6; label: 32P
[3] = target: T2, EcCc Hfq (Escherichia coli / Caulobacter …, UniProt P0A6X3 1-67+B8GW92:71-82, internal_change); experiment: EMSA; Hill n 8.7; EMSA: 34 mM Tris-HCl pH 7.5, 50 mM NaCl, 50 mM KCl, 50 mM NH4Cl, 11.4 mM EDTA, 12% glycerol, 30 C, 30 min, ~1 nM 32P-RNA, Kd in Hfq6; anisotropy: 10 mM Tris-HCl; conditions: protein: recombinant; tags: untagged; chain copies: 6; label: 32P; stem-loops
[4] = target: T3, Cc78 (Caulobacter crescentus NA1000, UniProt B8GW92 1-78, del79-82); experiment: EMSA; Hill n 2.5; EMSA: 34 mM Tris-HCl pH 7.5, 50 mM NaCl, 50 mM KCl, 50 mM NH4Cl, 11.4 mM EDTA, 12% glycerol, 30 C, 30 min, ~1 nM 32P-RNA, Kd in Hfq6; anisotropy: 10 mM Tris-HCl; conditions: protein: recombinant; tags: untagged after self-cleaved intein; chain copies: 6; label: 32P; stem-loops
T3 sequence: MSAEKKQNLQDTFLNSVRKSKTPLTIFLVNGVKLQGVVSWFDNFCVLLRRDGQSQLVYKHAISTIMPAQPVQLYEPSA

[5] = target: T4, Ec65 (Escherichia coli, UniProt P0A6X3 1-65, del66-102); experiment: EMSA; Hill n 2.4; EMSA: 34 mM Tris-HCl pH 7.5, 50 mM NaCl, 50 mM KCl, 50 mM NH4Cl, 11.4 mM EDTA, 12% glycerol, 30 C, 30 min, ~1 nM 32P-RNA, Kd in Hfq6; anisotropy: 10 mM Tris-HCl; conditions: protein: recombinant; tags: untagged; chain copies: 6; label: 32P; stem-loops
[6] = target: T1, Ec Hfq (Hfq102); experiment: EMSA; Hill n 11.9; EMSA: 34 mM Tris-HCl pH 7.5, 50 mM NaCl, 50 mM KCl, 50 mM NH4Cl, 11.4 mM EDTA, 12% glycerol, 30 C, 30 min, ~1 nM 32P-RNA, Kd in Hfq6; anisotropy: 10 mM Tris-HCl; conditions: protein: recombinant; tags: untagged; chain copies: 6; label: 32P; stem-loops
[7] = target: T4, Ec65; experiment: EMSA; Hill n 1.7; EMSA: 34 mM Tris-HCl pH 7.5, 50 mM NaCl, 50 mM KCl, 50 mM NH4Cl, 11.4 mM EDTA, 12% glycerol, 30 C, 30 min, ~1 nM 32P-RNA, Kd in Hfq6; anisotropy: 10 mM Tris-HCl; conditions: protein: recombinant; tags: untagged; chain copies: 6; label: 32P; stem-loops
[8] = target: T1, Ec Hfq (Hfq102); experiment: EMSA; Hill n 1; Tris-glycine gel; EMSA: 34 mM Tris-HCl pH 7.5, 50 mM NaCl, 50 mM KCl, 50 mM NH4Cl, 11.4 mM EDTA, 12% glycerol, 30 C, 30 min, ~1 nM 32P-RNA, Kd in Hfq6; anisotropy: 10 mM Tris-HCl; conditions: protein: recombinant; tags: untagged; chain copies: 6; label: 32P; stem-loops
[9] = target: T3, Cc78; experiment: EMSA; Hill n 1.2; EMSA: 34 mM Tris-HCl pH 7.5, 50 mM NaCl, 50 mM KCl, 50 mM NH4Cl, 11.4 mM EDTA, 12% glycerol, 30 C, 30 min, ~1 nM 32P-RNA, Kd in Hfq6; anisotropy: 10 mM Tris-HCl; conditions: protein: recombinant; tags: untagged after self-cleaved intein; chain copies: 6; label: 32P; stem-loops
[10] = target: T2, EcCc Hfq; experiment: EMSA; Hill n 1.8; EMSA: 34 mM Tris-HCl pH 7.5, 50 mM NaCl, 50 mM KCl, 50 mM NH4Cl, 11.4 mM EDTA, 12% glycerol, 30 C, 30 min, ~1 nM 32P-RNA, Kd in Hfq6; anisotropy: 10 mM Tris-HCl; conditions: protein: recombinant; tags: untagged; chain copies: 6; label: 32P; stem-loops
[11] = target: T4, Ec65; experiment: EMSA; Hill n 3.1; EMSA: 34 mM Tris-HCl pH 7.5, 50 mM NaCl, 50 mM KCl, 50 mM NH4Cl, 11.4 mM EDTA, 12% glycerol, 30 C, 30 min, ~1 nM 32P-RNA, Kd in Hfq6; anisotropy: 10 mM Tris-HCl; conditions: protein: recombinant; tags: untagged; chain copies: 6; label: 32P; stem-loops
[12] = target: T3, Cc78; experiment: EMSA; Hill n 5.5; EMSA: 34 mM Tris-HCl pH 7.5, 50 mM NaCl, 50 mM KCl, 50 mM NH4Cl, 11.4 mM EDTA, 12% glycerol, 30 C, 30 min, ~1 nM 32P-RNA, Kd in Hfq6; anisotropy: 10 mM Tris-HCl; conditions: protein: recombinant; tags: untagged after self-cleaved intein; chain copies: 6; label: 32P; stem-loops
[13] = target: T2, EcCc Hfq; experiment: EMSA; Hill n 4.5; EMSA: 34 mM Tris-HCl pH 7.5, 50 mM NaCl, 50 mM KCl, 50 mM NH4Cl, 11.4 mM EDTA, 12% glycerol, 30 C, 30 min, ~1 nM 32P-RNA, Kd in Hfq6; anisotropy: 10 mM Tris-HCl; conditions: protein: recombinant; tags: untagged; chain copies: 6; label: 32P; stem-loops
[14] = target: T1, Ec Hfq (Hfq102); experiment: EMSA; Hill n 4.1; EMSA: 34 mM Tris-HCl pH 7.5, 50 mM NaCl, 50 mM KCl, 50 mM NH4Cl, 11.4 mM EDTA, 12% glycerol, 30 C, 30 min, ~1 nM 32P-RNA, Kd in Hfq6; anisotropy: 10 mM Tris-HCl; conditions: protein: recombinant; tags: untagged; chain copies: 6; label: 32P; stem-loops
[15] = target: T3, Cc78; experiment: EMSA; Hill n 3.5; EMSA: 34 mM Tris-HCl pH 7.5, 50 mM NaCl, 50 mM KCl, 50 mM NH4Cl, 11.4 mM EDTA, 12% glycerol, 30 C, 30 min, ~1 nM 32P-RNA, Kd in Hfq6; anisotropy: 10 mM Tris-HCl; conditions: protein: recombinant; tags: untagged after self-cleaved intein; chain copies: 6; label: 32P; stem-loops
[16] = target: T4, Ec65; experiment: EMSA; Hill n 1.0; EMSA: 34 mM Tris-HCl pH 7.5, 50 mM NaCl, 50 mM KCl, 50 mM NH4Cl, 11.4 mM EDTA, 12% glycerol, 30 C, 30 min, ~1 nM 32P-RNA, Kd in Hfq6; anisotropy: 10 mM Tris-HCl; conditions: protein: recombinant; tags: untagged; chain copies: 6; label: 32P; stem-loops
[17] = target: T2, EcCc Hfq; experiment: EMSA; Hill n 30.2; EMSA: 34 mM Tris-HCl pH 7.5, 50 mM NaCl, 50 mM KCl, 50 mM NH4Cl, 11.4 mM EDTA, 12% glycerol, 30 C, 30 min, ~1 nM 32P-RNA, Kd in Hfq6; anisotropy: 10 mM Tris-HCl; conditions: protein: recombinant; tags: untagged; chain copies: 6; label: 32P; stem-loops
[18] = target: T1, Ec Hfq (Hfq102); experiment: EMSA; Hill n 10.1; EMSA: 34 mM Tris-HCl pH 7.5, 50 mM NaCl, 50 mM KCl, 50 mM NH4Cl, 11.4 mM EDTA, 12% glycerol, 30 C, 30 min, ~1 nM 32P-RNA, Kd in Hfq6; anisotropy: 10 mM Tris-HCl; conditions: protein: recombinant; tags: untagged; chain copies: 6; label: 32P; stem-loops
[19] = target: T1, Ec Hfq (Hfq102); experiment: EMSA; Hill n 2.2; EMSA: 34 mM Tris-HCl pH 7.5, 50 mM NaCl, 50 mM KCl, 50 mM NH4Cl, 11.4 mM EDTA, 12% glycerol, 30 C, 30 min, ~1 nM 32P-RNA, Kd in Hfq6; anisotropy: 10 mM Tris-HCl; conditions: protein: recombinant; tags: untagged; chain copies: 6; label: 32P
[20] = target: T4, Ec65; experiment: EMSA; Hill n 3.7; EMSA: 34 mM Tris-HCl pH 7.5, 50 mM NaCl, 50 mM KCl, 50 mM NH4Cl, 11.4 mM EDTA, 12% glycerol, 30 C, 30 min, ~1 nM 32P-RNA, Kd in Hfq6; anisotropy: 10 mM Tris-HCl; conditions: protein: recombinant; tags: untagged; chain copies: 6; label: 32P; folded
[21] = target: T1, Ec Hfq (Hfq102); experiment: EMSA; Hill n 13; EMSA: 34 mM Tris-HCl pH 7.5, 50 mM NaCl, 50 mM KCl, 50 mM NH4Cl, 11.4 mM EDTA, 12% glycerol, 30 C, 30 min, ~1 nM 32P-RNA, Kd in Hfq6; anisotropy: 10 mM Tris-HCl; conditions: protein: recombinant; tags: untagged; chain copies: 6; label: 32P; folded
[22] = target: T3, Cc78; experiment: EMSA; Hill n 1.6; EMSA: 34 mM Tris-HCl pH 7.5, 50 mM NaCl, 50 mM KCl, 50 mM NH4Cl, 11.4 mM EDTA, 12% glycerol, 30 C, 30 min, ~1 nM 32P-RNA, Kd in Hfq6; anisotropy: 10 mM Tris-HCl; conditions: protein: recombinant; tags: untagged after self-cleaved intein; chain copies: 6; label: 32P; folded
[23] = target: T2, EcCc Hfq; experiment: EMSA; Hill n 1.0; EMSA: 34 mM Tris-HCl pH 7.5, 50 mM NaCl, 50 mM KCl, 50 mM NH4Cl, 11.4 mM EDTA, 12% glycerol, 30 C, 30 min, ~1 nM 32P-RNA, Kd in Hfq6; anisotropy: 10 mM Tris-HCl; conditions: protein: recombinant; tags: untagged; chain copies: 6; label: 32P; folded

stoichiometry N [1]: 6
Molecule: Caulobacter crescentus Hfq (natural protein)

B1: hns (structured_RNA)
RNA: GAACAAACCACCCCAAUAUAAGUUUGAGAUUACUACAAUGAGCGAAGCACUUAAAAUUCUGAACAACAUCCGUACUCUUCGUGCGCAGGCAAGAGAAUGUACACUUGAAACGCUGGAAGAA
Kd [2]: 19.7 ± 0.4 nM

B2: DsrA (structured_RNA)
RNA: GGGAACACAUCAGAUUUCCUGGUGUAACGAAUUUUUUAAGUGCUUCUUGCUUAAGCAAGUUUCAUCCCGACCCCCUCAGGGUCGGGAUUUUUUU
Kd [3]: 42.5 ± 1 nM
Kd [4]: 62.2 ± 4.4 nM
Kd [5]: 12.6 ± 1.9 nM
Kd [6]: 21.1 ± 0.3 nM

B3: R133 (structured_RNA)
RNA: GGAGCCCUUUCGGGCGUUUCCUCCCAAUGACUCGGCCGCCCUCUUCUCCUGGAGGGCGGCCGUUCUUUU
Kd [7]: 21.6 ± 1.3 nM
Kd [8]: 14.7 ± 1.3 nM
Kd [9]: 242 ± 17 nM
Kd [10]: 232 ± 46 nM

B4: RybB (structured_RNA)
RNA: GGCCACUGCUUUUCUUUGAUGUCCCCAUUUUGUGGAGCCCAUCAACCCCGCCAUUUCGGUUCAAGGUUGAUGGGUUUUUU
Kd [11]: 27.1 ± 0.9 nM
Kd [12]: 68.1 ± 1.9 nM
Kd [13]: 37.3 ± 6.2 nM
Kd [14]: 21.5 ± 2 nM

B5: ChiX (structured_RNA)
RNA: GGGACACCGUCGCUUAAAGUGACGGCAUAAUAAUAAAAAAAUGAAAUUCCUCUUUGACGGGCCAAUAGCGAUAUUGGCCAUUUUUUU
Kd [15]: 32.4 ± 0.4 nM
Kd [16]: 95 ± 27 nM
Kd [17]: 35.8 ± 0.4 nM
Kd [18]: 20.3 ± 0.4 nM

B6: cfa (structured_RNA)
RNA: GGUUGUUAAAGCUACGAUAAAUAUUAUGUUUUUACGGGGACAGGAUCGUUCCCGACUCACUAUGGAUAGUCAUUUCGGCAAGGGUUCCUCCUUUCCCUCUGUUCUACGUCGGAUUAUAGACUCGCGGUUUUUUCUGCGAGAUUUCUCACAAAGCCCAAAAAGCGUCUACGCUGUUUUAAGGUUCUGAUCACCGACCAGUGAUGGAGAAACUAUGAGUUCAUCGUGUAUAGAAGAAGUCAGUGUACCGGAUGACAAC
Kd [19]: 19 ± 0.5 nM

B7: RydC (structured_RNA)
RNA: GGCUUCCGAUGUAGACCCGUAUUCUUCGCCUGUACCACGGGUCGGUUUUAGUACAGGCGUUUUCUU
Kd [20]: 12.3 ± 0.4 nM
Kd [21]: 22.1 ± 0.2 nM
Kd [22]: 167 ± 11 nM
Kd [23]: 237 ± 34 nM
